Substitutions are numbered along the chain they refer to. Values belong to the binder of their own block, whether it stands above or below them.
Columns and labels:
[1] = molecular target: T1, human B7-H4 extracellular domain (human, UniProt Q7Z7D3 29-258); experiment: competition ELISA on coated huB7-H4 ECD; competitor biotinylated 0058 (by series, not given)
T1 construct: For SPR it says only human B7-H4 ECD; also called Hu B7-H4 ECD; huB7-H4 ECD
T1 sequence: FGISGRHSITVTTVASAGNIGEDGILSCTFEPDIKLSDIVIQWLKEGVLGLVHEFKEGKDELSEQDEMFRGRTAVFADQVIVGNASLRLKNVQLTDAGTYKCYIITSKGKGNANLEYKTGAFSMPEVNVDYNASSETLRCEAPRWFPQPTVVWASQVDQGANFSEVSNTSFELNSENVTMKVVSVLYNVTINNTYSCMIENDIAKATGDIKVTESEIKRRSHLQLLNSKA

[2] = molecular target: T2, human CD3 (delta/epsilon heterodimer) (human, UniProt P07766 23-126; P04234 22-105); experiment: SPR 25 C; CD3 delta/epsilon on anti-His chip, bispecific analyte
T2 construct: captured on an anti-His chip, so it carries a His tag; also called huCD3

[3] = molecular target: T3, cyno CD3 (delta/epsilon heterodimer) (cyno, UniProt Q95LI5 22-117; Q95LI8 22-105); experiment: as above
T3 construct: also called cyCD3

human B7-H4 on cells = molecular target: T4, human B7-H4 on cells (human, UniProt Q7Z7D3 25-282); experiment: cell-based or functional assay; on T cell mediated tumor cell killing, MDA-MB-468: unit not given here; on T cell mediated tumor cell killing, OVCAR3-Luc: unit not given here; on T cell mediated tumor cell killing, T47D: unit not given here
T4 sequence (looked up): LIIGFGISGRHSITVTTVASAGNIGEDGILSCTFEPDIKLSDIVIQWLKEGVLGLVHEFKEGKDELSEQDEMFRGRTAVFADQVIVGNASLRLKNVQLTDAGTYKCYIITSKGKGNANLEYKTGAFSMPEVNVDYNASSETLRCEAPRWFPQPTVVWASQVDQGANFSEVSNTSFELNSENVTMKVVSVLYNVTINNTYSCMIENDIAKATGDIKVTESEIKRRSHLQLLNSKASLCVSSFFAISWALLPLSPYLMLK

[4] = molecular target: T2, human CD3 (delta/epsilon heterodimer); experiment: SPR 37 C; CD3 delta/epsilon on anti-His chip, bispecific analyte
[5] = molecular target: T3, cyno CD3 (delta/epsilon heterodimer); experiment: as above

T3 sequence (Q95LI5 22-117, stated change not applied, chain 1 of 2): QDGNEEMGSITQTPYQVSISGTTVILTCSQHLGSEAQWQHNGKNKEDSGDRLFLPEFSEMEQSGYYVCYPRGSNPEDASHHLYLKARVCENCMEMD
T3 sequence (Q95LI8 22-105, stated change not applied, chain 2 of 2): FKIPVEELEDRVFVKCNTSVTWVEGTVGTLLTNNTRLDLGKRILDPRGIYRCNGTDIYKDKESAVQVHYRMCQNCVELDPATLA
T2 sequence (P07766 23-126, stated change not applied, chain 1 of 2): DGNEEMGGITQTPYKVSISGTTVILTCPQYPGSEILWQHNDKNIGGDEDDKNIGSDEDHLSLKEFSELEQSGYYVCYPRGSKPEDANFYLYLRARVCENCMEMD
T2 sequence (P04234 22-105, stated change not applied, chain 2 of 2): as the sequence (Q95LI8 22-105, stated change not applied, chain 2 of 2) above, with V5I, K15N, V20I, T32S, N33D, N34I, A64T, N74S, L83V counted along it

IC50 [1]: 2.4 nM
B1: B7-H4 antibody 0562 (antibody, human IgG1, kappa, V domains shown)
VH: EVQLLESGGGLVQPGGSLRLSCAASGFTFSSYAMSWVRQAPGKGLEWVSAISGGGGSTQYADSVKGRFTISRDNSKNTLYLQMNSLRAEDTAVYYCARDIQWFGESTLFDYWGQGTLVTVSS
VL: DIQLTQSPSTLSASVGDRVTITCRASQSIRSWLAWFQQKPGKAPKLLIYKASSLEGGVPSRFSGSGSGTEFTLTISSLQPDDFATYYCQQYNSYSRTFGQGTKVEIKR

IC50 [1]: 4.2 nM
B2: B7-H4 antibody 0274 (antibody, human IgG1, kappa, V domains shown)
VH: B1 VH with Q59Y
VL: B1 VL with L4M, T10S, E70D, D81E

IC50 [1]: 2.1 nM
B3: B7-H4 antibody 0571 (antibody, human IgG1, kappa, V domains shown)
VH: B1 VH with Q59Y
VL: B1 VL with L4M, T10S, I29T, F36H, G56S, E70D, D81E, N92G

IC50 [1]: 35.2 nM
B4: B7-H4 antibody 0564 (antibody, human IgG1, kappa, V domains shown)
VH: B1 VH with Q59Y, F103H
VL: B1 VL

IC50 [1]: 0.42 nM
B5: B7-H4 antibody 1115 (antibody, human IgG1, kappa, V domains shown)
VH: B1 VH with Q59Y, F103Y
VL: B1 VL with L4M, T10S, I29T, F36Y, G56S, E70D, D81E, N92G

IC50 [1]: 1.7 nM
B6: B7-H4 antibody 0572 (antibody, human IgG1, kappa, V domains shown)
VH: B1 VH with Q59Y
VL: B1 VL with L4M, T10S, I29T, F36L, G56S, E70D, D81E, N92G

IC50 [1]: 1 nM
B7: B7-H4 antibody 1113 (antibody, human IgG1, kappa, V domains shown)
VH: B1 VH with Q59Y, F103Y
VL: B1 VL with L4M, T10S, I29T, F36Y, E70D, D81E, N92G

IC50 [1]: 2 nM
B8: B7-H4 antibody 0563 (antibody, human IgG1, kappa, V domains shown)
VH: B1 VH with Q59Y, F103Y
VL: B1 VL

IC50 [1]: 0.16 nM
B9: B7-H4 antibody 1116 (antibody, human IgG1, kappa, V domains shown)
VH: B1 VH with Q59Y, F103Y
VL: B1 VL with L4M, T10S, I29T, F36H, G56S, E70D, D81E, N92G

IC50 [1]: 5.4 nM
B10: B7-H4 antibody 0567 (antibody, human IgG1, kappa, V domains shown)
VH: B1 VH with Q59Y
VL: B1 VL with L4M, T10S, I29T, W32H, F36Y, E70D, D81E, N92G

IC50 [1]: 3.1 nM
B11: B7-H4 antibody 0570 (antibody, human IgG1, kappa, V domains shown)
VH: B1 VH with Q59Y
VL: B1 VL with L4M, T10S, I29T, F36Y, G56S, E70D, D81E, N92G

IC50 [1]: 0.15 nM
B12: B7-H4 antibody 1117 (antibody, human IgG1, kappa, V domains shown)
VH: B1 VH with Q59Y, F103Y
VL: B1 VL with L4M, T10S, I29T, F36L, G56S, E70D, D81E, N92G

IC50 [1]: 22.7 nM
B13: B7-H4 antibody 0565 (antibody, human IgG1, kappa, V domains shown)
VH: B1 VH with Q59Y, E105R
VL: B1 VL

Kd [2]: 12.7 nM
koff [2]: 0.00536 s⁻¹
kon [2]: 423000 M⁻¹ s⁻¹
Kd [3]: 13.7 nM
koff [3]: 0.00504 s⁻¹
kon [3]: 369000 M⁻¹ s⁻¹
B14: B7-H4xCD3 bispecific antibody 0077 (bispecific antibody)
heavy 1: QVQLQQWGAGLLKPSETLSLTCALYGGSFSGYYWNWIRQPPGKGLEWIGEINHSGSANYNPSLKSRVTISVDTSKNQFSLRLSSVTAADTAVYYCARGLYNWNVDRWGQGTLVTVSSASTKGPSVFPLAPCSRSTSESTAALGCLVKDYFPEPVTVSWNSGALTSGVHTFPAVLQSSGLYSLSSVVTVPSSNFGTQTYTCNVDHKPSNTKVDKTVERKCEVECPECPAPPVAGPSVFLFPPKPKDTLMISRTPEVTCVVVAVSHEDPEVQFNWYVDGVEVHNAKTKPREEQFNSTFRVVSVLTVVHQDWLNGKEYKCKVSNKGLPSSIEKTISKTKGQPREPQVYTLPPSREEMTKNQVSLTCEVKGFYPSDIAVEWESNGQPENNYKTTPPMLDSDGSFFLYSKLTVDKSRWQQGNVFSCSVMHEALHNHYTQKSLSLSPGK
light 1: not shown
heavy 2: EVQLVESGGGLVQPGGSLRLSCAASGFTFSDYYMTWVRQAPGKGLEWVAFIRNQARGYTSDHNPSVKGRFTISRDNAKNSLYLQMNSLRAEDTAVYYCARDRPSYYVLDYWGQGTTVTVSSASTKGPSVFPLAPCSRSTSESTAALGCLVKDYFPEPVTVSWNSGALTSGVHTFPAVLQSSGLYSLSSVVTVPSSNFGTQTYTCNVDHKPSNTKVDKTVERKCRVRCPRCPAPPVAGPSVFLFPPKPKDTLMISRTPEVTCVVVAVSHEDPEVQFNWYVDGVEVHNAKTKPREEQFNSTFRVVSVLTVVHQDWLNGKEYKCKVSNKGLPSSIEKTISKTKGQPREPQVYTLPPSREEMTKNQVSLTCLVKGFYPSDIAVEWESNGQPENNYKTTPPMLDSDGSFFLYSRLTVDKSRWQQGNVFSCSVMHEALHNHYTQKSLSLSPGK
light 2: DIQMTQSPSSLSASVGDRVTITCTSSQSLFNVRSQKNYLAWYQQKPGKAPKLLIYWASTRESGVPSRFSGSGSGTDFTLTISSLQPEDFATYYCKQSYDLFTFGGGTKVEIKRTVAAPSVFIFPPSDEQLKSGTASVVCLLNNFYPREAKVQWKVDNALQSGNSQESVTEQDSKDSTYSLSSTLTLSKADYEKHKVYACEVTHQGLSSPVTKSFNRGEC
notes: also called anti-B7-H4 clone 19D3
T cell mediated tumor cell killing EC50, HCC1954-Luc (human B7-H4 on cells): 93 nM

Kd [2]: 13.2 nM
koff [2]: 0.00553 s⁻¹
kon [2]: 420000 M⁻¹ s⁻¹
Kd [3]: 13.5 nM
koff [3]: 0.00506 s⁻¹
kon [3]: 374000 M⁻¹ s⁻¹
Kd [4]: 63 nM
koff [4]: 0.0349 s⁻¹
kon [4]: 554000 M⁻¹ s⁻¹
Kd [5]: 69 nM
koff [5]: 0.0349 s⁻¹
kon [5]: 506000 M⁻¹ s⁻¹
B15: B7-H4xCD3 bispecific antibody 0068 (bispecific antibody, IgG2)
heavy 1: EVQLLESGGGLVQPGGSLRLSCAASGFTFSSYAMSWVRQAPGKGLEWVSAISGGGGSTYYADSVKGRFTISRDNSKNTLYLQMNSLRAEDTAVYYCARDIQWFGESTLFDYWGQGTLVTVSSASTKGPSVFPLAPCSRSTSESTAALGCLVKDYFPEPVTVSWNSGALTSGVHTFPAVLQSSGLYSLSSVVTVPSSNFGTQTYTCNVDHKPSNTKVDKTVERKCEVECPECPAPPVAGPSVFLFPPKPKDTLMISRTPEVTCVVVAVSHEDPEVQFNWYVDGVEVHNAKTKPREEQFNSTFRVVSVLTVVHQDWLNGKEYKCKVSNKGLPSSIEKTISKTKGQPREPQVYTLPPSREEMTKNQVSLTCEVKGFYPSDIAVEWESNGQPENNYKTTPPMLDSDGSFFLYSKLTVDKSRWQQGNVFSCSVMHEALHNHYTQKSLSLSPGK
light 1: DIQLTQSPSTLSASVGDRVTITCRASQSIRSWLAWFQQKPGKAPKLLIYKASSLEGGVPSRFSGSGSGTEFTLTISSLQPDDFATYYCQQYNSYSRTFGQGTKVEIKRTVAAPSVFIFPPSDEQLKSGTASVVCLLNNFYPREAKVQWKVDNALQSGNSQESVTEQDSKDSTYSLSSTLTLSKADYEKHKVYACEVTHQGLSSPVTKSFNRGEC
heavy 2: B14 heavy 2
light 2: B14 light 2
notes: Chains 1-2: B7-H4 arm; chains 3-4: CD3 arm; IgG2 EEE/RRR; also called anti-B7-H4 clone 37D4
T cell mediated tumor cell killing EC50, HCC1954-Luc (human B7-H4 on cells): 284 nM
T cell mediated tumor cell killing, MDA-MB-468 (human B7-H4 on cells): 332
T cell mediated tumor cell killing, OVCAR3-Luc (human B7-H4 on cells): 79
T cell mediated tumor cell killing, T47D (human B7-H4 on cells): 566

From patent US20220017622A1 (Pfizer, published 2022)
